The star is where a group is joined. CSCF3 = thiotrifluoroacetyl on lysine, FC(F)(F)C(=S)*; fluorescein = fluorescein label at the N-terminus
Tests used:
Hst2 (yeast) = Hst2 (yeast) (UniProt P53686); assay: ITC
SIRT3 (human) [1] = assay: fluorescence polarisation
SIRT3 (human) [2] = assay: ITC

Chain of UniProt P53686 (P53686 whole entry): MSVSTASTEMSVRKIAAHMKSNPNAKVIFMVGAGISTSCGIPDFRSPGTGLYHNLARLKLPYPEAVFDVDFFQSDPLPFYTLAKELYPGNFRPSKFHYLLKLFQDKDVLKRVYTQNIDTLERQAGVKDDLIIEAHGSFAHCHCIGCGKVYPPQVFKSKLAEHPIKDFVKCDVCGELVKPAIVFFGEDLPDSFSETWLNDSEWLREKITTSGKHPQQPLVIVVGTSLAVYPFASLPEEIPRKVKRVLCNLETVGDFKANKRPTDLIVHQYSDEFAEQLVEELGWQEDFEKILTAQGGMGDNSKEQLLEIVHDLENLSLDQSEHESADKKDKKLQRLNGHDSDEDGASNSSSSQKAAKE

Row | Kd (Hst2 (yeast)) | Kd (SIRT3 (human) [1]) | Kd (SIRT3 (human) [2]) | Molecule
1 | 950 nM |  |  | Histone H3 peptide with pentafluoropropionyl-lysine at Lys-14
2 |  | 1700 nM | 900 nM | fluorescein-LPKTRSGK(CSCF3)VMRR-OH

Reference: paper PMC3042044
